Assay results reported in paper doi:10.1101/494930 (bioRxiv, 2018).
“And” between values parts separate entries of the source, which are not always exact repeats. Equal values may be shown once.

B1: WT-HYPE (aa 102-458) (enzyme)
chain: GKLEARAALNQALEMKRQGKREKAQKLFMHALKMDPDFVDALTEFGIFSEEDKDIIQADYLYTRALTISPYHEKALVNRDRTLPLVEEIDQRYFSIIDSKVKKVMSIPKGNSALRRVMEETYYHHIYHTVAIEGNTLTLSEIRHILETRYAVPGKSLEEQNEVIGMHAAMKYINTTLVSRIGSVTISDVLEIHRRVLGYVDPVEAGRFRTTQVLVGHHIPPHPQDVEKQMQEFVQWLNSEEAMNLHPVEFAALAHYKLVYIHPFIDGNGRTSRLLMNLILMQAGYPPITIRKEQRSDYYHVLEAANEGDVRPFIRFIAKCTETTLDTLLFATTEYSVALPEAQPNHSGFKETLPVKP
B2: His6-BiP SBD (aa 418-637) (domain or fragment)
chain: not shown

Assays:
Test in all cases: BLI
[1] = molecular target: BiP-His6 (WT-BiP, aa 19-637) (human, UniProt P11021 19-637)
His6-BiP NBD (aa 28-405) = His6-BiP NBD (aa 28-405) (human, UniProt P11021 28-405)
WT-HYPE (aa 102-458) = molecular target: B1

Chain of BiP-His6 (WT-BiP, aa 19-637) (P11021 19-637): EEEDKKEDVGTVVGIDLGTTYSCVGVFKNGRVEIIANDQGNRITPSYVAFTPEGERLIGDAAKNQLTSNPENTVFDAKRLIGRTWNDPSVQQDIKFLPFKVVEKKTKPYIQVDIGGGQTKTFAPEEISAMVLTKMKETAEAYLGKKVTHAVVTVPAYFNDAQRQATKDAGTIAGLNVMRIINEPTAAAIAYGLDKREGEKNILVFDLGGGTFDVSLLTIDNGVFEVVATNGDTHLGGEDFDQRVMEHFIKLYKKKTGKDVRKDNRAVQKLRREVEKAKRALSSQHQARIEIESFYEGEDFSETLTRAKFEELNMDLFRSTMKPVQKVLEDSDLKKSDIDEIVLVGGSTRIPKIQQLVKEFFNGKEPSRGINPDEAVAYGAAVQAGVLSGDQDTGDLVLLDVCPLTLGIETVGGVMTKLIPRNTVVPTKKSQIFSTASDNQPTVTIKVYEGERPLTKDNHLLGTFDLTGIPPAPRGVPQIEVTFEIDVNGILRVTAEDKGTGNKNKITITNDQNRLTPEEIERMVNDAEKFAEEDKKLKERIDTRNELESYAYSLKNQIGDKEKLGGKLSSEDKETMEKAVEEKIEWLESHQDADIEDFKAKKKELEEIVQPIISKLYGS
Chain of His6-BiP NBD (aa 28-405) (P11021 28-405): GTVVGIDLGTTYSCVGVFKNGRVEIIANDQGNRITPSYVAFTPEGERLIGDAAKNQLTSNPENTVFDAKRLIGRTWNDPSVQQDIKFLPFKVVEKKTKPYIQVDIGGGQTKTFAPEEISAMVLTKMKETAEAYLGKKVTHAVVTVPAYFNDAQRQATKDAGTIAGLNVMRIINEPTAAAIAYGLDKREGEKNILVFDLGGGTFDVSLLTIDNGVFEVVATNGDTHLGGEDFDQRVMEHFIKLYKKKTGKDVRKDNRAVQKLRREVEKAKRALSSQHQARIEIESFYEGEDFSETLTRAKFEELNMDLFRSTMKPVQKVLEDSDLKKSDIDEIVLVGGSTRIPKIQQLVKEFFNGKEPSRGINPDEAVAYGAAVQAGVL

Row | Kd [1] | Kd (His6-BiP NBD (aa 28-405)) [µM] | Kd (WT-HYPE (aa 102-458)) [µM] | Binder
1 | 4.5 µM and 6.1 µM | 3.16 | – | B1
2 | – | – | 6.85 | B2
